Target: cynomolgus CD40 overexpressed on CHO cells (cynomolgus) [GFP: P42212]
Assay: flow cytometry on CHO cells expressing cynomolgus CD40

- EC50: 7.28 nM
Substance: CP870893-IgG2 (antibody)
